From paper PMC3923297, “Structural basis for microtubule recognition by the human kinetochore Ska complex” (Nature Communications, 2014)
Values joined by “and” are separate entries in the source; they are usually repeats but may differ in a detail not shown here. Equal entries are not always repeated.

Experiments:
[1] = target: microtubules polymerised from tubulin (α1B and β2B tubulin), P81947;Q6B856; assay: MT cosedimentation assay; settings: 3 μM Ska and 6 μM vinblastine spirals; parent: est. 0.60; read off a plot
[2] = target: T1, microtubules polymerised from tubulin (α1B and β2B tubulin) (UniProt P81947 1-451; Q6B856 1-445); assay: co-sedimentation; MT-pelleting assay: taxol-stabilized MTs or subtilisin-treated MTs (0-12 μM tubulin dimer) with 1 or 3 μM protein, 10 min at room temperature, BRB80 (80 mM PIPES pH 6.9, 1 mM EGTA, 1 mM MgCl2) with 100 mM NaCl, 4 mM DTT, 20 μM taxol; spun through a glycerol cushion, 25 °C; SDS-PAGE, Coomassie, ImageJ. Kd: 1 μM Ska and 0-12 μM MTs; single points: 3 μM Ska (or 1 μM) and 6 μM MTs; settings: both partners purified
T1 construct: α-tubulin, printed as α1B tubulin; β-tubulin, printed as β2B tubulin; Polymer of α/β-tubulin dimers; The same tubulin stood as taxol-stabilized (straight) MTs and as vinblastine spirals (curved); the assay tells them apart; brain tubulin is a mix of isotypes; also called MTs; taxol-stabilized MTs; source: bought: Cytoskeleton Inc. (tubulin), polymerised; taxol-stabilized MTs or vinblastine spirals
T1 sequence (P81947 whole entry, chain 1 of 2): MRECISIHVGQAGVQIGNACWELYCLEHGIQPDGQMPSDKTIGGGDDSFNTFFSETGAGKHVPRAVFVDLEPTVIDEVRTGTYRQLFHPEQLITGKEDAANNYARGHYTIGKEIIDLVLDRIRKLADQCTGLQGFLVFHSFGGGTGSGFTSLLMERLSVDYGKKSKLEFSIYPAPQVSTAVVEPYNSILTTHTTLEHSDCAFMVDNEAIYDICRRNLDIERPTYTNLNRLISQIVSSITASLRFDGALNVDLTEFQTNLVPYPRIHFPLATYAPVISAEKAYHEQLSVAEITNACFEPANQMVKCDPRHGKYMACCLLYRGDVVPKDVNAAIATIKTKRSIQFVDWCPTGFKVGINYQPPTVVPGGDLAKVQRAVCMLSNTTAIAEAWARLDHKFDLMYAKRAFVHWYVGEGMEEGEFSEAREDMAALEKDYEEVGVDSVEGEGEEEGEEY
T1 sequence (Q6B856 whole entry, chain 2 of 2): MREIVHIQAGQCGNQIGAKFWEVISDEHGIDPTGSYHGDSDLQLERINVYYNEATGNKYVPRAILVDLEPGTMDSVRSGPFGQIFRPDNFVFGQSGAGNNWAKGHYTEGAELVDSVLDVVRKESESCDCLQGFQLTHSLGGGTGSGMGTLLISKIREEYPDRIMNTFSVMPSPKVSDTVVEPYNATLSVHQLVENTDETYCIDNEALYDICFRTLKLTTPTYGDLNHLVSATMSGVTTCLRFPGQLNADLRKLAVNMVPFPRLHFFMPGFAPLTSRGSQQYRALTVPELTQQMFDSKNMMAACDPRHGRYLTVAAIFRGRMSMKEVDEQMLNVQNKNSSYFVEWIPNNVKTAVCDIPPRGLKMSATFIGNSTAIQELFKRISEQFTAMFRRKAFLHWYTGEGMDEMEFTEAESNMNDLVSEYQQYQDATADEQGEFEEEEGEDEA

response (bound fraction) [1]: 0.63 and 0.21 and 0.31
Kd [2]: 2.9 ± 0.6 µM
B1: human Ska complex (Ska1, Ska2, Ska3), wild type, full length (complex)
chain 1: MASSDLEQLCSHVNEKIGNIKKTLSLRNCGQEPTLKTVLNKIGDEIIVINELLNKLELEIQYQEQTNNSLKELCESLEEDYKDIEHLKENVPSHLPQVTVTQSCVKGSDLDPEEPIKVEEPEPVKKPPKEQRSIKEMPFITCDEFNGVPSYMKSRLTYNQINDVIKEINKAVISKYKILHQPKKSMNSVTRNLYHRFIDEETKDTKGRYFIVEADIKEFTTLKADKKFHVLLNILRHCRRLSEVRGGGLTRYVIT
chain 2: MEAEVDKLELMFQKAESDLDYIQYRLEYEIKTNHPDSASEKNPVTLLKELSVIKSRYQTLYARFKPVAVEQKESKSRICATVKKTMNMIQKLQKQTDLELSPLTKEEKTAAEQFKFHMPDL
chain 3: MDPIRSFCGKLRSLASTLDCETARLQRALDGEESDFEDYPMRILYDLHSEVQTLKDDINILLDKARLENQEGIDFIKATKVLMEKNSMDIMKIREYFQKYGYSPRVKKNSVHEQEAINSDPELSNCENFQKTDVKDDLSDPPVASSCISEKSPRSPQLSDFGLERYIVSQVLPNPPQAVNNYKEEPVIVTPPTKQSLVKVLKTPKCALKMDDFECVTPKLEHFGISEYTMCLNEDYTMGLKNARNNKSEEAIDTESRLNDNVFATPSPIIQQLEKSDAEYTNSPLVPTFCTPGLKIPSTKNSIALVSTNYPLSKTNSSSNDLEVEDRTSLVLNSDTCFENLTDPSSPTISSYENLLRTPTPPEVTKIPEDILQLLSKYNSNLATPIAIKAVPPSKRFLKHGQNIRDVSNKEN
notes: Ska1, human; Ska2, human; Ska3, human, V58I as cloned; Ska3 V58I is printed without explanation; TEV-cleavable tags removed in solution; also called WT Ska complex; FL Ska complex; source: E. coli BL21 Gold, co-expressed, purified (glutathione sepharose, size-exclusion chromatography); copies: 2 + 2 + 2
